Test results published in EP0614981A1.

What follows are substances tested against IFNγ (UniProt P01579) (assay: cell-based or functional assay).
Sequence of UniProt P01579 (P01579 24-166 limits assumed): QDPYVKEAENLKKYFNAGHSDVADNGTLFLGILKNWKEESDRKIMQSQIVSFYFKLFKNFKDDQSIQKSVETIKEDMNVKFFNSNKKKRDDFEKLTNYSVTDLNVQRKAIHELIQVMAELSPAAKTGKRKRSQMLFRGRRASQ

Substance | IC50 nM, inhibition of IFNγ antiviral activity (CPE, WISH cells, EMC virus) | IC50 µg/ml, inhibition of IFNγ antiviral activity (CPE, WISH cells, EMC virus)
hIFNγR-HG1 (from UniProt P01857 99-330) (Fc fusion) | 26 nM | 4.4 µg/mL
hIFNγR-HG3 (from UniProt P01860 99-377) (Fc fusion) | 11 nM | 2 µg/mL
soluble human IFNγ receptor (shIFNγR) | 216 nM | 6.7 µg/mL
